Like-named read-outs stand apart in the source and are kept apart here.
Test: Biodistribution, BxPC-3 pancreatic xenograft tumor mouse model
Type: in vivo, mice
Settings: female, athymic nude, iv, total radioactivity, γ-counter, mean ± SD; for tissue uptake at 4 h / tissue uptake at 24 h / tissue uptake at 48 h: i.v.
Experimental: All animal procedures conformed to the Animal Welfare Act and were approved by the University of California Davis Institutional Animal Care and Use Committee. All mice used for in vivo work were female athymic nude mice (6–8 weeks old) purchased from Charles River Laboratories (Wilmington, MA). For PET imaging and biodistribution studies, female athymic nude mice (6–8 weeks old) were injected subcutaneously with 3 × 10^6 DX3puro and 3 × 10^6 DX3puroβ6 cells in serum free DMEM on the right and left flank, respectively, or with 5 × 10^6 BxPC-3 cells in serum free RPMI 1640/Matrigel (1/1 v/v). Studies commenced once tumors reached a maximum diameter of ∼0.5 cm, approximately 3 weeks after inoculation. Food and water were available ad libitum. [^64Cu]PDC-1 was formulated in isotonic 0.9% saline to pH = 7.2 and administered intravenously (i.v.) via a catheter into the tail vein.
Aliquots of the formulated [^64Cu]PDC-1 in isotonic 0.9% saline (4.81–5.74 MBq, 1.7–2.1 μg, 0.26–0.31 nmol, 100 μL, pH 7.2) were injected i.v. as described above. Following the conscious uptake period, the mice were anesthetized (5% isoflurane), euthanized, and dissected (n ≥ 3/model/time point [4, 24, and 48 h]; the 48 h time point also included the imaging animals sacrificed after the PET scans). Tissues were collected, washed, weighed, and radioactivity measured in a γ-counter. Calibrated, decay-corrected radioactivity was expressed as the percentage of injected dose per gram of tissue (% ID/g). Data are reported as mean ± SD. […] For in vivo blocking studies, DOTA-2 (50 mg/kg, 205 nmol, 1.4 mg in 100 μL 0.9% saline) was injected i.v. into two animals/tumor model 10 min prior to [^64Cu]PDC-1. The animals were sacrificed after 4 h, tissues collected, washed, weighed, and radioactivity measured in a γ-counter.
Biodistribution data of [64Cu]PDC-1 in BxPC-3 tumor model.
Table S4. Biodistribution of [ 64Cu]PDC-1 in mice bearing a BxPC-3 xenograft tumor. Tissue uptake is
expressed as the mean of the percentage of injected dose per gram of tissue ± standard deviation (n = 4/
time point; n = 6 at 48 h); an = 3, bn = 5.

SMILES: CC[C@H](C)[C@@H]([C@@H](CC(=O)N1CCC[C@H]1[C@H](OC)[C@@H](C)C(=O)N[C@H](C)[C@@H](O)c1ccccc1)OC)N(C)C(=O)[C@@H](NC(=O)[C@H](C(C)C)N(C)C(=O)OCc1ccc(NC(=O)[C@H](CCCNC(N)=O)NC(=O)[C@@H](NC(=O)CCOCCOCCNC(=O)CCN2C(=O)CC(SC[C@H](NC(=O)CN3CCN(CC(=O)O)CCN(CC(=O)O)CCN(CC(=O)O)CC3)C(=O)NCCOCCOCCOCCOCCOCCOCCOCCOCCOCCOCCOCCOCCOCCOCCOCCOCCOCCOCCOCCOCCOCCOCCOCCOCCOCCOCCOCCOCCC(=O)N[C@@H](CC(N)=O)C(=O)N[C@@H](C)C(=O)N[C@H](C(=O)N3CCC[C@H]3C(=O)N[C@@H](CC(N)=O)C(=O)N[C@@H](CC(C)C)C(=O)N[C@@H](CCCNC(=N)N)C(=O)NCC(=O)N[C@@H](CC(=O)O)C(=O)N[C@@H](CC(C)C)C(=O)N[C@@H](CCC(N)=O)C(=O)N[C@H](C(=O)N[C@@H](CC(C)C)C(=O)N[C@@H](C)C(=O)N[C@@H](CCC(N)=O)C(=O)N[C@@H](CCCNC(=N)N)C(=O)N[C@H](C(=O)N[C@@H](C)C(=O)N[C@@H](CCCNC(=N)N)C(=O)N[C@H](C(=O)NCCOCCOCCOCCOCCOCCOCCOCCOCCOCCOCCOCCOCCOCCOCCOCCOCCOCCOCCOCCOCCOCCOCCOCCOCCOCCOCCOCCOCCC(N)=O)[C@@H](C)O)C(C)C)C(C)C)C(C)C)C2=O)C(C)C)cc1)C(C)C (stereo partly drawn) [[^64Cu]PDC-1, metal not drawn]
- tissue uptake at 4 h (BxPC-3 (αvβ6 +) tumor, 4 h p.i., n = 3, read-out: BxPC-3 (αvβ6 +) tumor uptake): 4.61 ± 1.44 %ID/g
- tissue uptake at 24 h (BxPC-3 (αvβ6 +) tumor, 24 h p.i., n = 4, read-out: BxPC-3 (αvβ6 +) tumor uptake): 3.73 ± 0.44 %ID/g
- tissue uptake at 48 h (BxPC-3 (αvβ6 +) tumor, 48 h p.i., n = 6, read-out: BxPC-3 (αvβ6 +) tumor uptake): 2.93 ± 0.8 %ID/g
- tissue uptake at 4 h (bladder, 4 h p.i., n = 4, read-out: Bladder uptake): 2.06 ± 0.2 %ID/g
- tissue uptake at 24 h (bladder, 24 h p.i., n = 4, read-out: Bladder uptake): 1.84 ± 0.45 %ID/g
- tissue uptake at 48 h (bladder, 48 h p.i., n = 6, read-out: Bladder uptake): 1.28 ± 0.46 %ID/g
- tissue uptake at 4 h (blood, 4 h p.i., n = 4, read-out: Blood uptake): 0.13 ± 0.02 %ID/g
- tissue uptake at 24 h (blood, 24 h p.i., n = 4, read-out: Blood uptake): 0.31 ± 0.04 %ID/g
- tissue uptake at 48 h (blood, 48 h p.i., n = 6, read-out: Blood uptake): 0.28 ± 0.04 %ID/g
- tissue uptake at 4 h (bone, 4 h p.i., n = 4, read-out: Bone uptake): 0.36 ± 0.1 %ID/g
- tissue uptake at 24 h (bone, 24 h p.i., n = 4, read-out: Bone uptake): 0.43 ± 0.03 %ID/g
- tissue uptake at 48 h (bone, 48 h p.i., n = 6, read-out: Bone uptake): 0.23 ± 0.11 %ID/g
- tissue uptake at 4 h (brain, 4 h p.i., n = 4, read-out: Brain uptake): 0.04 %ID/g
- tissue uptake at 24 h (brain, 24 h p.i., n = 4, read-out: Brain uptake): 0.08 ± 0.01 %ID/g
- tissue uptake at 48 h (brain, 48 h p.i., n = 6, read-out: Brain uptake): 0.08 ± 0.03 %ID/g
- tissue uptake at 4 h (gall bladder, 4 h p.i., n = 4, read-out: Gall bladder uptake): 3.99 ± 1.49 %ID/g
- tissue uptake at 24 h (gall bladder, 24 h p.i., n = 4, read-out: Gall bladder uptake): 2.88 ± 1.31 %ID/g
- tissue uptake at 48 h (gall bladder, 48 h p.i., n = 6, read-out: Gall bladder uptake): 1.46 ± 1.09 %ID/g
- tissue uptake at 4 h (heart, 4 h p.i., n = 4, read-out: Heart uptake): 0.79 ± 0.11 %ID/g
- tissue uptake at 24 h (heart, 24 h p.i., n = 4, read-out: Heart uptake): 0.89 ± 0.13 %ID/g
- tissue uptake at 48 h (heart, 48 h p.i., n = 6, read-out: Heart uptake): 0.79 ± 0.07 %ID/g
- tissue uptake at 4 h (kidney, 4 h p.i., n = 4, read-out: Kidney uptake): 50.4 ± 3.08 %ID/g
- tissue uptake at 24 h (kidney, 24 h p.i., n = 4, read-out: Kidney uptake): 41.6 ± 11.8 %ID/g
- tissue uptake at 48 h (kidney, 48 h p.i., n = 6, read-out: Kidney uptake): 21.5 ± 7.01 %ID/g
- tissue uptake at 4 h (large intestines, 4 h p.i., n = 4, read-out: Lg. Intestines uptake): 5.49 ± 0.47 %ID/g
- tissue uptake at 24 h (large intestines, 24 h p.i., n = 4, read-out: Lg. Intestines uptake): 5.21 ± 0.82 %ID/g
- tissue uptake at 48 h (large intestines, 48 h p.i., n = 6, read-out: Lg. Intestines uptake): 2.78 ± 1.08 %ID/g
- tissue uptake at 4 h (liver, 4 h p.i., n = 4, read-out: Liver uptake): 1.51 ± 0.29 %ID/g
- tissue uptake at 24 h (liver, 24 h p.i., n = 4, read-out: Liver uptake): 1.95 ± 0.33 %ID/g
- tissue uptake at 48 h (liver, 48 h p.i., n = 6, read-out: Liver uptake): 1.8 ± 0.3 %ID/g
- tissue uptake at 4 h (lung, 4 h p.i., n = 4, read-out: Lung uptake): 2.44 ± 0.3 %ID/g
- tissue uptake at 24 h (lung, 24 h p.i., n = 4, read-out: Lung uptake): 2.3 ± 0.04 %ID/g
- tissue uptake at 48 h (lung, 48 h p.i., n = 6, read-out: Lung uptake): 1.67 ± 0.42 %ID/g
- tissue uptake at 4 h (muscle, 4 h p.i., n = 4, read-out: Muscle uptake): 0.8 ± 0.09 %ID/g
- tissue uptake at 24 h (muscle, 24 h p.i., n = 4, read-out: Muscle uptake): 0.68 ± 0.06 %ID/g
- tissue uptake at 48 h (muscle, 48 h p.i., n = 6, read-out: Muscle uptake): 0.44 ± 0.09 %ID/g
- tissue uptake at 4 h (pancreas, 4 h p.i., n = 4, read-out: Pancreas uptake): 0.32 ± 0.09 %ID/g
- tissue uptake at 24 h (pancreas, 24 h p.i., n = 4, read-out: Pancreas uptake): 0.46 ± 0.04 %ID/g
- tissue uptake at 48 h (pancreas, 48 h p.i., n = 6, read-out: Pancreas uptake): 0.47 ± 0.06 %ID/g
- tissue uptake at 4 h (skin, 4 h p.i., n = 4, read-out: Skin uptake): 1.92 ± 0.5 %ID/g
- tissue uptake at 24 h (skin, 24 h p.i., n = 4, read-out: Skin uptake): 1.41 ± 0.25 %ID/g
- tissue uptake at 48 h (skin, 48 h p.i., n = 6, read-out: Skin uptake): 0.79 ± 0.19 %ID/g
- tissue uptake at 4 h (small intestines, 4 h p.i., n = 4, read-out: Sm. Intestines uptake): 3.98 ± 0.54 %ID/g
- tissue uptake at 24 h (small intestines, 24 h p.i., n = 4, read-out: Sm. Intestines uptake): 2.85 ± 0.31 %ID/g
- tissue uptake at 48 h (small intestines, 48 h p.i., n = 6, read-out: Sm. Intestines uptake): 1.5 ± 0.23 %ID/g
- tissue uptake at 4 h (spleen, 4 h p.i., n = 4, read-out: Spleen uptake): 0.19 ± 0.02 %ID/g
- tissue uptake at 24 h (spleen, 24 h p.i., n = 4, read-out: Spleen uptake): 0.52 ± 0.09 %ID/g
- tissue uptake at 48 h (spleen, 48 h p.i., n = 6, read-out: Spleen uptake): 0.43 ± 0.08 %ID/g
- tissue uptake at 4 h (stomach, 4 h p.i., n = 4, read-out: Stomach uptake): 8.73 ± 0.66 %ID/g
- tissue uptake at 24 h (stomach, 24 h p.i., n = 4, read-out: Stomach uptake): 5.94 ± 0.9 %ID/g
- tissue uptake at 48 h (stomach, 48 h p.i., n = 6, read-out: Stomach uptake): 2.78 ± 0.79 %ID/g
- excreta dose per gram or mL at 4 h (urine, 4 h p.i., n = 4): 15.3 ± 1.2 %ID/g
- excreta dose per gram or mL at 24 h (urine, 24 h p.i., n = 4): 4.81 ± 0.84 %ID/g
- excreta dose per gram or mL at 48 h (urine, 48 h p.i., n = 5): 2.04 ± 0.97 %ID/g
